{
  "source": "patent US11298427B2",
  "about": "“Prodrugs comprising a pyroglutamate linker” (Ascendis Pharma A/S, priority 2015, dated 2022)",
  "assay": "hydrolysis / release kinetics of linker-peptide conjugates in buffer at 37° C., LCMS analysis, half-life by curve fitting",
  "type": "physicochemical",
  "protocol": "The hydrolysis kinetics of PEGylated linker-peptide conjugate 8 were studied at pH 7.4, 37° C. and pH 8.9, 37° C. Therefore, the starting material 8 was dissolved in two different buffers (60 mM phosphate, pH 7.4 and 100 mM borate pH 8.9, respectively). The resulting solutions were incubated in a water bath at 37° C. At given points in time samples were withdrawn, quenched and analyzed by LCMS. Curve fitting software was applied to determine the corresponding half-life of the release.\nRelease kinetics were setup and analyzed according to example 5 with additional buffers at 37° C.\nRelease kinetics were setup and analyzed according to example 5 with changed buffers.",
  "key": {"[1]": {"conditions": "sodium phosphate buffer, pH 7.4, 100 mM sodium phosphate, pH 7.4, 37° C., read-out: half-life (converted)"}},
  "note": "Read-outs that look alike come from different tables or passages of the source.",
  "data": [
    {"molecule": "COCCOCCOCCOCCOCCOCCOCCOCCNC(=O)[C@@H](N)CCC(=O)NCCCC[C@H](NC(=O)[C@H](CO)NC(C)=O)C(=O)N[C@@H](Cc1ccc(O)cc1)C(=O)O", "note": "[Compound 8]", "values": [
      {"measurement": "half-life", "setting": "borate buffer, pH 8.9, 100 mM borate, pH 8.9, 37° C., read-out: half-life of release of Ac-Ser-Lys-Tyr-OH (9) (converted)", "result": 220, "unit": "days"},
      {"measurement": "half-life", "setting": "phosphate buffer, pH 7.4, 60 mM phosphate, pH 7.4, 37° C., read-out: half-life of release of Ac-Ser-Lys-Tyr-OH (9) (converted)", "result": 56, "unit": "days"}
    ]},
    {"molecule": "CN[C@@H](CCC(=O)NCCCC[C@H](NC(=O)[C@H](CO)NC(C)=O)C(=O)N[C@@H](Cc1ccc(O)cc1)C(=O)O)C(=O)N(C)CCOCCOCCOCCOCCOCCOCCOCCOC", "note": "[Compound 25c]", "values": [
      {"measurement": "half-life", "setting": "HEPES buffer, pH 7.4, 60 mM HEPES, 130 mM NaCl, pH 7.4, 37° C., read-out: half-life (converted)", "result": 149, "unit": "days"},
      {"measurement": "half-life", "setting": "sodium borate buffer, pH 9, 100 mM sodium borate, pH 9.0, 37° C., read-out: half-life (converted)", "result": 92, "unit": "days"},
      {"measurement": "half-life", "setting": "sodium citrate buffer, pH 4, 100 mM sodium citrate, pH 4.0, 37° C., read-out: half-life (converted)", "result": 129, "unit": "days"},
      {"measurement": "half-life", "setting": "sodium citrate buffer, pH 5.5, 100 mM sodium citrate, pH 5.5, 37° C., read-out: half-life (converted)", "result": 207, "unit": "days"},
      {"measurement": "half-life", "setting": "sodium citrate buffer, pH 6.5, 30 mM sodium citrate, pH 6.5, 37° C., read-out: half-life (converted)", "result": 339, "unit": "days"},
      {"measurement": "half-life", "setting": "sodium citrate buffer, pH 6.5, 100 mM sodium citrate, pH 6.5, 37° C., read-out: half-life (converted)", "result": 336, "unit": "days"},
      {"measurement": "half-life", "setting": "sodium phosphate buffer, pH 6.5, 100 mM sodium phosphate, pH 6.5, 37° C., read-out: half-life (converted)", "result": 35, "unit": "days"},
      {"measurement": "half-life", "setting": "sodium phosphate buffer, pH 7.4, 30 mM sodium phosphate, pH 7.4, 37° C., read-out: half-life (converted)", "result": 55, "unit": "days"},
      {"measurement": "half-life", "setting": "sodium phosphate buffer, pH 7.4, 60 mM sodium phosphate, pH 7.4, 37° C., read-out: half-life (converted)", "result": 36, "unit": "days"},
      {"measurement": "half-life", "setting": "[1]", "result": 55, "unit": "days"},
      {"measurement": "half-life", "setting": "sodium phosphate buffer, pH 7.4, 200 mM sodium phosphate, pH 7.4, 37° C., read-out: half-life (converted)", "result": 17, "unit": "days"}
    ]},
    {"molecule": "CN[C@@H](CCC(=O)NCCCC[C@H](NC(=O)[C@H](CO)NC(C)=O)C(=O)N[C@@H](Cc1ccc(O)cc1)C(=O)O)C(=O)NCCOCCOCCOCCOCCOCCOCCOCCOC", "note": "[Compound 25b]", "values": [
      {"measurement": "half-life", "setting": "[1]", "result": 164, "unit": "days"}
    ]},
    {"molecule": "COCCOCCOCCOCCOCCOCCOCCOCCN(C)C(=O)[C@@H](N)CCC(=O)NCCCC[C@H](NC(=O)[C@H](CO)NC(C)=O)C(=O)N[C@@H](Cc1ccc(O)cc1)C(=O)O", "note": "[Compound 25a]", "values": [
      {"measurement": "half-life", "setting": "[1]", "result": 26, "unit": "days"}
    ]}
  ]
}
